{"source": "paper PMC11109965", "about": "“Correction of non-random mutational biases along a linear bacterial chromosome by the mismatch repair endonuclease NucS” (Nucleic Acids Research, 2024)", "proteins": {"B1": {"name": "NucS from Streptomyces ambofaciens (NucSSam), N-terminal His-tagged (enzyme, Streptomyces ambofaciens ATCC23877, UniProt A0ABN4PBG3 1-223, looked up)", "chain": "MRLVIARCSVDYAGRLTAHLPSAPRLILVKADGSVSIHADDRAYKPLNWMSPPCTLKEGTGEEEGVWTVVNKAGEKLIITMEEILHDSSHELGVDPGLIKDGVEAHLQELLADRIETLGEGYTLIRREYMTAIGPVDILCRDAEGRTVAVEIKRRGEIDGVEQLTRYLELLNRDPHLAPVRGVFAAQEIKPQARVLATDRGIGCQVLDYNAMRGIEDDKLRLF", "notes": "223 amino acids; calculated molecular weight 24762.44 Da; Found as monomer and dimer in solution, the monomer prevailing; the monomeric fraction was used in the cleavage assays; also called EndoMS/NucS; His-tagged NucSSam; not shown: His-tag, N-terminal, kept"}, "B2": {"name": "β-clamp from Streptomyces ambofaciens (β-clampSam), N-terminal His-tagged (natural protein)", "chain": "MKIRVERDVLAEAVAWAARSLPARPPAPVLAGLLLKAEEGQLSLSSFDYEVSARVSVEAEVEEEGTVLVSGRLLADISRALPNRPVEISTDGVRATVVCGSSRFTLHTLPVEEYPALPQMPEATGTVPGEVFAAAVQQVAIAAGRDDTLPVLTGVRIEIEGDSVTLASTDRYRFAVREFLWKPENPEVSAVALVPAKTLQDTAKALTSGDQVILALAGSGAGEGLIGFEGAGRRTTTRLLEGDLPKYKTLFPTEFNSIAVIETAPFVEAVKRVALVAERNTPVRLSFEQGVLILEAGSSDDAQAVERVDAQLEGDDISIAFNPTFLLDGLSAIDSPVAQLSFTTSTKPALLSGKPAVDAEADEAYKYLIMPVRLSG"}}, "key": {"[1]": {"biological_target": "the molecule itself", "experiment": "SEC-MALS; fractions of the main gel filtration peak of NucSSam; molecular weights determined on the right side of the peaks because peak homogeneity was moderate"}, "[2]": {"biological_target": "the molecule itself", "experiment": "SEC + SEC-MALS; purified His-tagged β-clampSam; gel filtration (single peak, about 97 kDa) and SEC-MALS (about 84 kDa)"}}}
{"protein": "B1", "values": [{"measurement": "stoichiometry N", "setting": "[1]", "result": 2}]}
{"protein": "B2", "values": [{"measurement": "stoichiometry N", "setting": "[2]", "result": 2}]}
